According to PMC9730764:

Assays:
[1] = target: Staphylococcus aureus cysteine desulfurase SufS (S. aureus USA300_LAC)
[2] = target: Bacillus subtilis cysteine desulfurase SufS (B. subtilis) (UniProt O32164)

Staphylococcus aureus sulfurtransferase SufU (from UniProt A0ABV4SS75 2-153) (natural protein)
stimulation factor of SufS cysteine desulfurase activity by SufU [1]: 1.5
stimulation factor of SufS cysteine desulfurase activity by SufU [2]: 15
